Test results from patent US20190154677.
Like-named read-outs stand apart in the source and are kept apart here.

Tests used:
[1] = target: Hepatitis B surface antigen (HBs Ag) (Hepatitis B virus) (UniProt P03141); conditions: magnetic bead pulldown with q-PCR, BD buffer, room temperature
[2] = target: Hepatitis B surface antigen (HBs Ag) (Hepatitis B virus) (UniProt P03141); conditions: magnetic bead pulldown with q-PCR, BD buffer, room temperature; remark: listed apart in the source

Chain of Hepatitis B surface antigen (HBs Ag) (Hepatitis B virus) (P03141 175-400): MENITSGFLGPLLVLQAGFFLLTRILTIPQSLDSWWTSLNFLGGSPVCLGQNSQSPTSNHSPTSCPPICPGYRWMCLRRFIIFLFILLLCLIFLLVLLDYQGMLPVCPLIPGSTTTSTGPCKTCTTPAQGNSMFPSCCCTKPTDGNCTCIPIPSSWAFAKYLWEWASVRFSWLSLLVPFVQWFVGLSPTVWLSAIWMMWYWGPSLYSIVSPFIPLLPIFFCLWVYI

| Sequence | Kd [1] [nM] | Kd [2] [nM] |
| --- | --- | --- |
| AGCAGCACAGAGGTCCCAACCGGAATCTGCACCTCGCGTGCTACCGTGAA [K2-4] | 31.4 |  |
| AGCAGCACAGAGGTCCTGCATCACGAAGCCTGGCAGCGTGCTACCGTGAA [MP-1] |  | 28.3 |
